In experiment [1] the target is T1, cyno MUC1-C on stably transfected CHOK1 cells (cyno).
T1 construct: domain: MUC1-C; also called CHOK1-cyno-MUC1-C cells; Monkey MUC1-CT
Briefly: FACS, CHOK1-cyno-MUC1-C. On the technique in general: A flow cytometer gives signals particle by particle.

Experiment [2] deals with T2, human EGFR-His antigen (human, UniProt P00533 25-645).
T2 construct: also called hEGFR-His
Briefly: SPR Biacore 8K, antibody on Protein A chip, 1:1 fit. (In general: In SPR one partner is held on a chip, and binding of the other changes the refractive index at the surface.)

Experiment [3] concerns the target T2, human EGFR-His antigen. The description is as above. This is another data set of the same source.

Read-outs that look alike come from different tables or passages of the source.

B1: ChiM6 (antibody, human IgG1, kappa, V domains shown)
VH: QVQLQQSGAELMKPGASVKLSCKATGYRFIPYWIEWIKERPGHGLEWIGEILPGTGRTNYNEKFKGKATFTADTSSNTAYMQLSSLTTEDSAIYYCARYGDDTSGGYYAVDYWGQGTSVTVSS
VL: DIVMTQSSASLAMSLGQRATISCRASESVNILGTNLIHWYQQKPGQPPKLLIYHASNLETGVPARFSGSGSRTDFTLTIDPVEEDDVAIYYCLQSRKIPWTFGGGTKLEIKR
notes: murine variable regions on human IgG1 constant regions; also called chimeric antibody of M6
In turn, B1 registered an Emax in experiment [1] of 70900.

B2: ChiF4-1 (antibody, human IgG1, kappa, V domains shown)
VH: QIQLQQSGPELVKPGASVKISCKASGYTFTDNYINWVKQRPGQGLEYIGWIYPGSGNNKFNEKFKGKATLTVDTSSRTAFMQLSSLTFEDSAVYFCARDYPFPSYHYGMDYWGQGTSVTVSS
VL: QILLTQSPAIMSASPGERVTITCSASSSVSYIHWFQQKPGTSPKLWIYSTSNLASGVPPRFSGSGSGTSFSLTVSRMEAEDAATYYCQQRSSYPPTFGGGTKLEIKR
notes: murine variable regions on human IgG1 constant regions; also called chimeric antibody of F4-1
B2 registered an Emax in experiment [1] of 41700.

B3: M4H1L1-ZalH′ (bispecific antibody, human IgG1, kappa)
heavy: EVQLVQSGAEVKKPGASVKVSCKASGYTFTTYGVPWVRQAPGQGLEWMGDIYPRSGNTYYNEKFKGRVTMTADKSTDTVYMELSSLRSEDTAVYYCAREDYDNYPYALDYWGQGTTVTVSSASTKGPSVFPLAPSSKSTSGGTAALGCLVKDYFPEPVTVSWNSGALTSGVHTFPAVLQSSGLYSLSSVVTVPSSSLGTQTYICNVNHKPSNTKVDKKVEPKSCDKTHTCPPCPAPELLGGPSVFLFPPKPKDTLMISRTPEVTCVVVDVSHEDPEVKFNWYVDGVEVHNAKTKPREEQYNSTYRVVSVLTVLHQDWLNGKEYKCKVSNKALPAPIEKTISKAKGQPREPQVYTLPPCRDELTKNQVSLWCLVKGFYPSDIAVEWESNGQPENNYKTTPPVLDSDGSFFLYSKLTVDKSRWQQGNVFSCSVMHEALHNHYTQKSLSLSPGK
light: DIQMTQSPSSLSASVGDRVTITCSASSSVFNMNWYQQKPGKSPKLWIYDISKLASGVPSRFSGSGSGTDFTLTISSLQPEDFATYYCQQRSFYPPTFGGGTKVEIKRTVAAPSVFIFPPSDEQLKSGTASVVCLLNNFYPREAKVQWKVDNALQSGNSQESVTEQDSKDSTYSLSSTLTLSKADYEKHKVYACEVTHQGLSSPVTKSFNRGEC
chain 1: not shown
chain 2: DIQLTQSPSSLSASVGDRVTITCRASQDISSALVWYQQKPGKAPKLLIYDASSLESGVPSRFSGSESGTDFTLTISSLQPEDFATYYCQQFNSYPLTFGGGTKVEIKGGGGSSGAPRFLTRPKASVVSVGKDATLSCQIVGNPFPQVSWEKDKQPVTAGVRFRLAQDGDLYRLKILDLQLSDSGQYVCRARNAHGEAFACLGLQVDAEA
notes: 1:1 format: MUC1 Fab arm with Fc knob; EGFR arm VH-linker-Titin-Fc hole paired with VL-linker-Obscurin; also called anti-EGFR-MUC1 bispecific antibody
Take B3: in the experiment with human EGFR-His antigen [2], the Kd came out at 4.13 nM, the koff stood at 0.00072 s⁻¹ and the on-rate (kon) is 174000 M⁻¹ s⁻¹.

B4: M4H1L1-ZalH8 (bispecific antibody, human IgG1, kappa)
heavy: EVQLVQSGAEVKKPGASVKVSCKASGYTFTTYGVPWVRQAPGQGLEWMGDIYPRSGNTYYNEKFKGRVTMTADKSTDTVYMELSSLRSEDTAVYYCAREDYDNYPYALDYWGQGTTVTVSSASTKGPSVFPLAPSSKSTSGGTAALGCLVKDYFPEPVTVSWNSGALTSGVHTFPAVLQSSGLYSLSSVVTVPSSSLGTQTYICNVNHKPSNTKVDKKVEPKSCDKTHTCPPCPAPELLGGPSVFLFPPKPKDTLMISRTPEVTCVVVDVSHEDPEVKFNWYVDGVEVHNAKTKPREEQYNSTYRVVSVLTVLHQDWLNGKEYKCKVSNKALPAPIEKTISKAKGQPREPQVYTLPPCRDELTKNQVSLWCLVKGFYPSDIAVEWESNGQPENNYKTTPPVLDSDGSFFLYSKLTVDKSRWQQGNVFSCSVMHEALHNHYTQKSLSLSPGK
light: DIQMTQSPSSLSASVGDRVTITCSASSSVFNMNWYQQKPGKSPKLWIYDISKLASGVPSRFSGSGSGTDFTLTISSLQPEDFATYYCQQRSFYPPTFGGGTKVEIKRTVAAPSVFIFPPSDEQLKSGTASVVCLLNNFYPREAKVQWKVDNALQSGNSQESVTEQDSKDSTYSLSSTLTLSKADYEKHKVYACEVTHQGLSSPVTKSFNRGEC
chain 1: not shown
chain 2: DIQLTQSPSSLSASVGDRVTITCRASQDISSALVWYQQKPGKAPKLLIYDASSLESGVPSRFSGSESGTDFTLTISSLQPEDFATYYCQQFNSYPLTFGGGTKVEIKGGGGSSGAPRFLTRPKASVVSVGKDATLSCQIVGNPFPQVSWEKDKQPVTAGVRFRLAQDGDLYRLKILDLQLSDSGQYVCRARNAHGEAFACLGLQVDAEA
notes: as for B3
In the experiment with human EGFR-His antigen [2], B4 gave a Kd of 162 nM, a koff of 0.0275 s⁻¹ and a kon of 171000 M⁻¹ s⁻¹.

B5: M4H1L1-ZalH10 (bispecific antibody, human IgG1, kappa)
heavy: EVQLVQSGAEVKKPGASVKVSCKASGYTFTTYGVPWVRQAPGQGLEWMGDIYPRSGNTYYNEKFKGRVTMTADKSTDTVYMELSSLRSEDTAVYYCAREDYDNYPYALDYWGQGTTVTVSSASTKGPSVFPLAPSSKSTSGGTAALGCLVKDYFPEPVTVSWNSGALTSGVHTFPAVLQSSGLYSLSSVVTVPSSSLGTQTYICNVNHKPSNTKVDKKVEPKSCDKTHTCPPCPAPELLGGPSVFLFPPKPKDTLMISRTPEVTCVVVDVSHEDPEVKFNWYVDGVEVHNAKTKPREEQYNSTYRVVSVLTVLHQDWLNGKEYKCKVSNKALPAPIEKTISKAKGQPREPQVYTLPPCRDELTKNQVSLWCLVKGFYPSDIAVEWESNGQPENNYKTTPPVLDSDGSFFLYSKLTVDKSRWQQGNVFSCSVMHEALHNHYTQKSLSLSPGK
light: DIQMTQSPSSLSASVGDRVTITCSASSSVFNMNWYQQKPGKSPKLWIYDISKLASGVPSRFSGSGSGTDFTLTISSLQPEDFATYYCQQRSFYPPTFGGGTKVEIKRTVAAPSVFIFPPSDEQLKSGTASVVCLLNNFYPREAKVQWKVDNALQSGNSQESVTEQDSKDSTYSLSSTLTLSKADYEKHKVYACEVTHQGLSSPVTKSFNRGEC
chain 1: not shown
chain 2: DIQLTQSPSSLSASVGDRVTITCRASQDISSALVWYQQKPGKAPKLLIYDASSLESGVPSRFSGSESGTDFTLTISSLQPEDFATYYCQQFNSYPLTFGGGTKVEIKGGGGSSGAPRFLTRPKASVVSVGKDATLSCQIVGNPFPQVSWEKDKQPVTAGVRFRLAQDGDLYRLKILDLQLSDSGQYVCRARNAHGEAFACLGLQVDAEA
notes: as for B3
As for B5, in the experiment with human EGFR-His antigen [2], the affinity, expressed as Kd, was 56.4 nM; the koff came to 0.0113 s⁻¹; the kon is 201000 M⁻¹ s⁻¹.

B6: M4H1L1-ZalH13 (bispecific antibody, human IgG1, kappa)
heavy: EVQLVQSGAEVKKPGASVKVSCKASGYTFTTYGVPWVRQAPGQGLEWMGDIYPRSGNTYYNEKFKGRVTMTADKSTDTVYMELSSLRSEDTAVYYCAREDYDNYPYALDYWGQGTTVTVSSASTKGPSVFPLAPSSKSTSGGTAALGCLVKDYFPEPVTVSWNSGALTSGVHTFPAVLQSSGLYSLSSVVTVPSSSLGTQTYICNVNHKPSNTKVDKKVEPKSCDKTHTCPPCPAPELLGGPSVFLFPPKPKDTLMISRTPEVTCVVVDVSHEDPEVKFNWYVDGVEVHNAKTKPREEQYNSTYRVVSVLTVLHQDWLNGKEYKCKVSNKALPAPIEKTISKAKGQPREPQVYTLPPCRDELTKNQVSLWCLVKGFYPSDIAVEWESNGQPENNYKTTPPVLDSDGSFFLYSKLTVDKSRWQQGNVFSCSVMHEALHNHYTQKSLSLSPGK
light: DIQMTQSPSSLSASVGDRVTITCSASSSVFNMNWYQQKPGKSPKLWIYDISKLASGVPSRFSGSGSGTDFTLTISSLQPEDFATYYCQQRSFYPPTFGGGTKVEIKRTVAAPSVFIFPPSDEQLKSGTASVVCLLNNFYPREAKVQWKVDNALQSGNSQESVTEQDSKDSTYSLSSTLTLSKADYEKHKVYACEVTHQGLSSPVTKSFNRGEC
chain 1: not shown
chain 2: DIQLTQSPSSLSASVGDRVTITCRASQDISSALVWYQQKPGKAPKLLIYDASSLESGVPSRFSGSESGTDFTLTISSLQPEDFATYYCQQFNSYPLTFGGGTKVEIKGGGGSSGAPRFLTRPKASVVSVGKDATLSCQIVGNPFPQVSWEKDKQPVTAGVRFRLAQDGDLYRLKILDLQLSDSGQYVCRARNAHGEAFACLGLQVDAEA
notes: as for B3
In the experiment with human EGFR-His antigen [2], B6 showed a Kd of 0.163 nM, a koff of 4.57e-05 s⁻¹ and a kon of 280000 M⁻¹ s⁻¹.

B7: ChiF4-18 (antibody, human IgG1, kappa, V domains shown)
VH: EVQLQQSGAELVRPGSSVKMSCKTSGYTFTSYGINWVKQRPGQGLEWIGYIYLGSDYTEYNEKFKGKATLTSDTTSSTAYMQLSSLTSEDSAIYFCARSAGSLFAYWGQGTLVTVSA
VL: DIQLTQSPSSLSASLGERVSLTCRASQDIGITLNWLQQEPDGTIKRLIYATSSLDSGVPKRFSGSRSGSDYSLTISSLESEDFVDYYCLQYASSPYTFGGGTKLEIKR
notes: murine variable regions on human IgG1 constant regions; also called chimeric antibody of F4-18
In the case of B7, the Emax in experiment [1] was determined as 79800.

B8: ChiM4 (antibody, human IgG1, kappa, V domains shown)
VH: QVQLQQSGAELARPGASVKLSCKASGYSFTTYGVPWVKQRTGQGLEWIGDIYPRSGNTYYNEKFKGKATLTADKSSDTVFMELRSLSSEDSAVYFCAREDYDNYPYALDYWGQGTSVTVSS
VL: EIVLTQSPAIIAASPGEKVTITCSASSSVFNMNWYQQKPGSSPKIWIYDISKLASGVPGRFSGSGSGTSFSLTINSMEAEDVGTYYCQQRSFYPPTFGGGTKVEIKR
notes: murine variable regions on human IgG1 constant regions; also called chimeric antibody of M4
The molecule B8 displayed an Emax in experiment [1] of 79500.

B9: ZalH12 (antibody, human IgG1, kappa, V domains shown)
VH: QVQLVESGGGVVQPGRSLRLSCAASGFTFSTYGMHWVRQAPGKGLEWVAVIWDDGSNKYYGDSVKGRFTISRDNSKNTLYLQMNSLRAEDTAVYYCARDGITMVRGVMKDYFDYWGQGTLVTVSS
VL: DIQLTQSPSSLSASVGDRVTITCRASQDISSALVWYQQKPGKAPKLLIYDASSLESGVPSRFSGSESGTDFTLTISSLQPEDFATYYCQQFNSYPLTFGGGTKVEIKR
notes: anti-EGFR zalutumumab variant, human IgG1
In the experiment with human EGFR-His antigen [3], B9 yielded a Kd of 120 nM, a koff of 0.0144 s⁻¹ and a kon of 120000 M⁻¹ s⁻¹.

B10: ZalH13 (antibody, human IgG1, kappa, V domains shown)
VH: QVQLVESGGGVVQPGRSLRLSCAASGFTFSSYAMHWVRQAPGKGLEWVAVIWDDGSYKYYGDSVKGRFTISRDNSKNTLYLQMNSLRAEDTAVYYCARDGITMVRGVMKDYFDYWGQGTLVTVSS
VL: DIQLTQSPSSLSASVGDRVTITCRASQDISSALVWYQQKPGKAPKLLIYDASSLESGVPSRFSGSESGTDFTLTISSLQPEDFATYYCQQFNSYPLTFGGGTKVEIKR
notes: as for B9
In the experiment with human EGFR-His antigen [3], B10 came in with a Kd of 1.96 nM, a koff of 0.000187 s⁻¹ and an on-rate constant (kon) of 95500 M⁻¹ s⁻¹.

B11: ZalH14 (antibody, human IgG1, kappa, V domains shown)
VH: QVQLVESGGGVVQPGRSLRLSCAASGFTFSTYGMHWVRQAPGKGLEWVAVIWYDGSNKYYADSVKGRFTISRDNSKNTLYLQMNSLRAEDTAVYYCARDGITMVRGVMKDYFDYWGQGTLVTVSS
VL: DIQLTQSPSSLSASVGDRVTITCRASQDISSALVWYQQKPGKAPKLLIYDASSLESGVPSRFSGSESGTDFTLTISSLQPEDFATYYCQQFNSYPLTFGGGTKVEIKR
notes: as for B9
In the experiment with human EGFR-His antigen [3], B11 showed a Kd of 210 nM, a koff of 0.0275 s⁻¹ and a kon of 131000 M⁻¹ s⁻¹.

Usually Kd stands for the free concentration of one partner at which half of the binding sites on the other are occupied at equilibrium, for simple one-to-one binding. The koff is the first-order rate constant of dissociation. One may read the kon as the rate constant with which the complex forms. High values mean faster complex formation, low ones slower complex formation.

The record behind these values is patent US20260232830A1 (JIANGSU HENGRUI PHARMACEUTICALS, published 2026).
